# Results published in patent publication US20210253718A1, “FRIZZLED5 PROTEIN-BINDING AGENTS” (Modmab Therapeutics Corporation, priority 2016, published 2021).
# T1: FZD4 CRD (Homo sapiens, UniProt Q9ULV1)
# T1 construct: E42-V167; GPI anchor signal (C); expressed in transfected cells; host or cells: CHO cells, lentiviral pLenti-puro
# T1 sequence (Q9ULV1 42-167): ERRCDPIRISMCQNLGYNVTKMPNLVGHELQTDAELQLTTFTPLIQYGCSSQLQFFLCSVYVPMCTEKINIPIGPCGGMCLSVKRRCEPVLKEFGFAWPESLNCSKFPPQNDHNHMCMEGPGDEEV
# T2: FZD5 CRD (Homo sapiens, UniProt Q13467)
# T2 construct: K29-T156; GPI anchor signal (C); expressed in transfected cells; host or cells: CHO cells, lentiviral pLenti-puro
# T2 sequence (Q13467 29-156): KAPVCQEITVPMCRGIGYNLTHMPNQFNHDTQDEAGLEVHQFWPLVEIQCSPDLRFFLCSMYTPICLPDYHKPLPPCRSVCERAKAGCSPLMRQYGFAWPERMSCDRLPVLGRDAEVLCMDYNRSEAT
# Molecular target: T1, FZD4 CRD
# Assay: Flow cytometry of anti-FZD5 Fab binding to CHO cells overexpressing Frizzled CRD
# Outline: (§1)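 CHO lines each expressing a different human Frizzled CRD, myc-tagged and GPI-anchored at the surface, stained with 200 nM Fab, then Alexa Fluor 488 F(ab′)2 secondary. Dead cells excluded by viability dye; anti-c-Myc staining served as expression control. Binding read by flow cytometry.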
row,Molecule,"Median fluorescence, Frizzled CRD overexpressed on CHO cells: FZD4"
1,"Fab-2899: anti-FZD5 Fab with antibody variable region Fv-2899; CDR SEQ ID NOs: 35, 36, 38, 77, 114, 153 (antibody, V domains shown) VH: EVQLVESGGGLVQPGGSLRLSCAASGFNLYYYYMHWVRQAPGKGLEWVASIYPSSGSTSYADSVKGRFTISADTSKNTAYLQMNSLRAEDTAVYYCARGALDYWGQGTLVTVSS VL: DIQMTQSPSSLSASVGDRVTITCRASQSVSSAVAWYQQKPGKAPKLLIYSASSLYSGVPSRFSGSRSGTDFTLTISSLQPEDFATYYCQQWYSSYGLITFGQGTKVEIK",11.86
2,"Fab-2902: anti-FZD5 Fab with antibody variable region Fv-2902; CDR SEQ ID NOs: 35, 36, 41, 80, 117, 153 (antibody, V domains shown) VH: EVQLVESGGGLVQPGGSLRLSCAASGFNISYYYIHWVRQAPGKGLEWVASISSSSSSTSYADSVKGRFTISADTSKNTAYLQMNSLRAEDTAVYYCARGALDYWGQGTLVTVSS VL: DIQMTQSPSSLSASVGDRVTITCRASQSVSSAVAWYQQKPGKAPKLLIYSASSLYSGVPSRFSGSRSGTDFTLTISSLQPEDFATYYCQQWYAFGALITFGQGTKVEIK",10.27
3,"Fab-2906: anti-FZD5 Fab with antibody variable region Fv-2906; CDR SEQ ID NOs: 35, 36, 45, 84, 121, 158 (antibody, V domains shown) VH: EVQLVESGGGLVQPGGSLRLSCAASGFNFSSSSIHWVRQAPGKGLEWVAYISSSYGYTYYADSVKGRFTISADTSKNTAYLQMNSLRAEDTAVYYCARTVRGSKKPYFSGWAMDYWGQGTLVTVSS VL: DIQMTQSPSSLSASVGDRVTITCRASQSVSSAVAWYQQKPGKAPKLLIYSASSLYSGVPSRFSGSRSGTDFTLTISSLQPEDFATYYCQQWSWGFLITFGQGTKVEIK",12.3
4,"Fab-2922: anti-FZD5 Fab with antibody variable region Fv-2922; CDR SEQ ID NOs: 35, 36, 61, 99, 137, 171 (antibody, V domains shown) VH: EVQLVESGGGLVQPGGSLRLSCAASGFNIYSSYMHWVRQAPGKGLEWVASISPYSGYTSYADSVKGRFTISADTSKNTAYLQMNSLRAEDTAVYYCARTVRGSKKPYFSGWAMDYWGQGTLVTVSS VL: DIQMTQSPSSLSASVGDRVTITCRASQSVSSAVAWYQQKPGKAPKLLIYSASSLYSGVPSRFSGSRSGTDFTLTISSLQPEDFATYYCQQSFVYPYLITFGQGTKVEIK",12.75
5,"Fab-2923: anti-FZD5 Fab with antibody variable region Fv-2923; CDR SEQ ID NOs: 35, 36, 62, 100, 138, 162 (antibody, V domains shown) VH: EVQLVESGGGLVQPGGSLRLSCAASGFNLYYYYMHWVRQAPGKGLEWVASIYSSSGSTSYADSVKGRFTISADTSKNTAYLQMNSLRAEDTAVYYCARGAMDYWGQGTLVTVSS VL: DIQMTQSPSSLSASVGDRVTITCRASQSVSSAVAWYQQKPGKAPKLLIYSASSLYSGVPSRFSGSRSGTDFTLTISSLQPEDFATYYCQQWYGYSALITFGQGTKVEIK",10.55
6,"Fab-2930: anti-FZD5 Fab with antibody variable region Fv-2930; CDR SEQ ID NOs: 35, 36, 69, 107, 145, 153 (antibody, V domains shown) VH: EVQLVESGGGLVQPGGSLRLSCAASGFNLSYYYIHWVRQAPGKGLEWVASIYPYSGSTSYADSVKGRFTISADTSKNTAYLQMNSLRAEDTAVYYCARGALDYWGQGTLVTVSS VL: DIQMTQSPSSLSASVGDRVTITCRASQSVSSAVAWYQQKPGKAPKLLIYSASSLYSGVPSRFSGSRSGTDFTLTISSLQPEDFATYYCQQWYGPYLITFGQGTKVEIK",9.31
7,"Fab-2935: anti-FZD5 Fab with antibody variable region Fv-2935; CDR SEQ ID NOs: 35, 36, 74, 111, 150, 178 (antibody, V domains shown) VH: EVQLVESGGGLVQPGGSLRLSCAASGFNIYYYYIHWVRQAPGKGLEWVASIYPSSGSTSYADSVKGRFTISADTSKNTAYLQMNSLRAEDTAVYYCARAAFDYWGQGTLVTVSS VL: DIQMTQSPSSLSASVGDRVTITCRASQSVSSAVAWYQQKPGKAPKLLIYSASSLYSGVPSRFSGSRSGTDFTLTISSLQPEDFATYYCQQWYGGYALITFGQGTKVEIK",7.3

# Molecular target: T3, FZD7 CRD (Homo sapiens, UniProt O75084)
# T3 construct: D45-S169; GPI anchor signal (C); expressed in transfected cells; host or cells: CHO cells, lentiviral pLenti-puro
# Assay: as above
# Outline: as §1
row,Molecule,"Median fluorescence, Frizzled CRD overexpressed on CHO cells: FZD7"
1,"Fab-2900: anti-FZD5 Fab with antibody variable region Fv-2900; CDR SEQ ID NOs: 35, 36, 39, 78, 115, 153 (antibody, V domains shown) VH: EVQLVESGGGLVQPGGSLRLSCAASGFNLSSYYIHWVRQAPGKGLEWVASISSSSSSTSYADSVKGRFTISADTSKNTAYLQMNSLRAEDTAVYYCARGALDYWGQGTLVTVSS VL: DIQMTQSPSSLSASVGDRVTITCRASQSVSSAVAWYQQKPGKAPKLLIYSASSLYSGVPSRFSGSRSGTDFTLTISSLQPEDFATYYCQQWYSGSSLFTFGQGTKVEIK",8.98
2,"Fab-2905: anti-FZD5 Fab with antibody variable region Fv-2905; CDR SEQ ID NOs: 35, 36, 44, 83, 120, 157 (antibody, V domains shown) VH: EVQLVESGGGLVQPGGSLRLSCAASGFNLSYYYMHWVRQAPGKGLEWVASIYSSYSYTSYADSVKGRFTISADTSKNTAYLQMNSLRAEDTAVYYCARSGYALDYWGQGTLVTVSS VL: DIQMTQSPSSLSASVGDRVTITCRASQSVSSAVAWYQQKPGKAPKLLIYSASSLYSGVPSRFSGSRSGTDFTLTISSLQPEDFATYYCQQSSWYYGYPFTFGQGTKVEIK",3.43
3,"Fab-2907: anti-FZD5 Fab with antibody variable region Fv-2907; CDR SEQ ID NOs: 35, 36, 46, 85, 122, 159 (antibody, V domains shown) VH: EVQLVESGGGLVQPGGSLRLSCAASGFNIYSSYMHWVRQAPGKGLEWVASISSYSGSTYYADSVKGRFTISADTSKNTAYLQMNSLRAEDTAVYYCARSSWGAYIVSYGFDYWGQGTLVTVSS VL: DIQMTQSPSSLSASVGDRVTITCRASQSVSSAVAWYQQKPGKAPKLLIYSASSLYSGVPSRFSGSRSGTDFTLTISSLQPEDFATYYCQQVGYWWGLITFGQGTKVEIK",2.62
4,"Fab-2925: anti-FZD5 Fab with antibody variable region Fv-2925; CDR SEQ ID NOs: 35, 36, 64, 102, 140, 172 (antibody, V domains shown) VH: EVQLVESGGGLVQPGGSLRLSCAASGFNLSYSSMHWVRQAPGKGLEWVASIYPSYGSTYYADSVKGRFTISADTSKNTAYLQMNSLRAEDTAVYYCARYGYFGLDYWGQGTLVTVSS VL: DIQMTQSPSSLSASVGDRVTITCRASQSVSSAVAWYQQKPGKAPKLLIYSASSLYSGVPSRFSGSRSGTDFTLTISSLQPEDFATYYCQQAWVYASLFTFGQGTKVEIK",24.14

# Molecular target: T2, FZD5 CRD
# Assay: as above
# Outline: as §1
row,Molecule,"Median fluorescence, Frizzled CRD overexpressed on CHO cells: FZD5"
1,"Fab-2907: anti-FZD5 Fab with antibody variable region Fv-2907; CDR SEQ ID NOs: 35, 36, 46, 85, 122, 159 (antibody, V domains shown) VH: EVQLVESGGGLVQPGGSLRLSCAASGFNIYSSYMHWVRQAPGKGLEWVASISSYSGSTYYADSVKGRFTISADTSKNTAYLQMNSLRAEDTAVYYCARSSWGAYIVSYGFDYWGQGTLVTVSS VL: DIQMTQSPSSLSASVGDRVTITCRASQSVSSAVAWYQQKPGKAPKLLIYSASSLYSGVPSRFSGSRSGTDFTLTISSLQPEDFATYYCQQVGYWWGLITFGQGTKVEIK",32.78
2,"Fab-2915: anti-FZD5 Fab with antibody variable region Fv-2915; CDR SEQ ID NOs: 35, 36, 54, 93, 130, 166 (antibody, V domains shown) VH: EVQLVESGGGLVQPGGSLRLSCAASGFNIYYYSMHWVRQAPGKGLEWVASIYSSYGYTSYADSVKGRFTISADTSKNTAYLQMNSLRAEDTAVYYCARGYHYYPYYSGLDYWGQGTLVTVSS VL: DIQMTQSPSSLSASVGDRVTITCRASQSVSSAVAWYQQKPGKAPKLLIYSASSLYSGVPSRFSGSRSGTDFTLTISSLQPEDFATYYCQQAYYHSLITFGQGTKVEIK",27.63
